# Assay results taken from IntAct's records for PubMed 26481812.
# B1: C-type mannose receptor 2 (Homo sapiens), Q9UBG0 (parent)
# chain: MGPGRPAPAPWPRHLLRCVLLLGCLHLGRPGAPGDAALPEPNVFLIFSHGLQGCLEAQGGQVRVTPACNTSLPAQRWKWVSRNRLFNLGTMQCLGTGWPGTNTTASLGMYECDREALNLRWHCRTLGDQLSLLLGARTSNISKPGTLERGDQTRSGQWRIYGSEEDLCALPYHEVYTIQGNSHGKPCTIPFKYDNQWFHGCTSTGREDGHLWCATTQDYGKDERWGFCPIKSNDCETFWDKDQLTDSCYQFNFQSTLSWREAWASCEQQGADLLSITEIHEQTYINGLLTGYSSTLWIGLNDLDTSGGWQWSDNSPLKYLNWESDQPDNPSEENCGVIRTESSGGWQNRDCSIALPYVCKKKPNATAEPTPPDRWANVKVECEPSWQPFQGHCYRLQAEKRSWQESKKACLRGGGDLVSIHSMAELEFITKQIKQEVEELWIGLNDLKLQMNFEWSDGSLVSFTHWHPFEPNNFRDSLEDCVTIWGPEGRWNDSPCNQSLPSICKKAGQLSQGAAEEDHGCRKGWTWHSPSCYWLGEDQVTYSEARRLCTDHGSQLVTITNRFEQAFVSSLIYNWEGEYFWTALQDLNSTGSFFWLSGDEVMYTHWNRDQPGYSRGGCVALATGSAMGLWEVKNCTSFRARYICRQSLGTPVTPELPGPDPTPSLTGSCPQGWASDTKLRYCYKVFSSERLQDKKSWVQAQGACQELGAQLLSLASYEEEHFVANMLNKIFGESEPEIHEQHWFWIGLNRRDPRGGQSWRWSDGVGFSYHNFDRSRHDDDDIRGCAVLDLASLQWVAMQCDTQLDWICKIPRGTDVREPDDSPQGRREWLRFQEAEYKFFEHHSTWAQAQRICTWFQAELTSVHSQAELDFLSHNLQKFSRAQEQHWWIGLHTSESDGRFRWTDGSIINFISWAPGKPRPVGKDKKCVYMTASREDWGDQRCLTALPYICKRSNVTKETQPPDLPTTALGGCPSDWIQFLNKCFQVQGQEPQSRVKWSEAQFSCEQQEAQLVTITNPLEQAFITASLPNVTFDLWIGLHASQRDFQWVEQEPLMYANWAPGEPSGPSPAPSGNKPTSCAVVLHSPSAHFTGRWDDRSCTEETHGFICQKGTDPSLSPSPAALPPAPGTELSYLNGTFRLLQKPLRWHDALLLCESRNASLAYVPDPYTQAFLTQAARGLRTPLWIGLAGEEGSRRYSWVSEEPLNYVGWQDGEPQQPGGCTYVDVDGAWRTTSCDTKLQGAVCGVSSGPPPPRRISYHGSCPQGLADSAWIPFREHCYSFHMELLLGHKEARQRCQRAGGAVLSILDEMENVFVWEHLQSYEGQSRGAWLGMNFNPKGGTLVWQDNTAVNYSNWGPPGLGPSMLSHNSCYWIQSNSGLWRPGACTNITMGVVCKLPRAEQSSFSPSALPENPAALVVVLMAVLLLLALLTAALILYRRRQSIERGAFEGARYSRSSSSPTEATEKNILVSDMEMNEQQE
# Variants of: B1
# Conditions: with co1a1_rat Col1a1, P02454
# Sequence of co1a1_rat Col1a1, P02454 (P02454 whole entry): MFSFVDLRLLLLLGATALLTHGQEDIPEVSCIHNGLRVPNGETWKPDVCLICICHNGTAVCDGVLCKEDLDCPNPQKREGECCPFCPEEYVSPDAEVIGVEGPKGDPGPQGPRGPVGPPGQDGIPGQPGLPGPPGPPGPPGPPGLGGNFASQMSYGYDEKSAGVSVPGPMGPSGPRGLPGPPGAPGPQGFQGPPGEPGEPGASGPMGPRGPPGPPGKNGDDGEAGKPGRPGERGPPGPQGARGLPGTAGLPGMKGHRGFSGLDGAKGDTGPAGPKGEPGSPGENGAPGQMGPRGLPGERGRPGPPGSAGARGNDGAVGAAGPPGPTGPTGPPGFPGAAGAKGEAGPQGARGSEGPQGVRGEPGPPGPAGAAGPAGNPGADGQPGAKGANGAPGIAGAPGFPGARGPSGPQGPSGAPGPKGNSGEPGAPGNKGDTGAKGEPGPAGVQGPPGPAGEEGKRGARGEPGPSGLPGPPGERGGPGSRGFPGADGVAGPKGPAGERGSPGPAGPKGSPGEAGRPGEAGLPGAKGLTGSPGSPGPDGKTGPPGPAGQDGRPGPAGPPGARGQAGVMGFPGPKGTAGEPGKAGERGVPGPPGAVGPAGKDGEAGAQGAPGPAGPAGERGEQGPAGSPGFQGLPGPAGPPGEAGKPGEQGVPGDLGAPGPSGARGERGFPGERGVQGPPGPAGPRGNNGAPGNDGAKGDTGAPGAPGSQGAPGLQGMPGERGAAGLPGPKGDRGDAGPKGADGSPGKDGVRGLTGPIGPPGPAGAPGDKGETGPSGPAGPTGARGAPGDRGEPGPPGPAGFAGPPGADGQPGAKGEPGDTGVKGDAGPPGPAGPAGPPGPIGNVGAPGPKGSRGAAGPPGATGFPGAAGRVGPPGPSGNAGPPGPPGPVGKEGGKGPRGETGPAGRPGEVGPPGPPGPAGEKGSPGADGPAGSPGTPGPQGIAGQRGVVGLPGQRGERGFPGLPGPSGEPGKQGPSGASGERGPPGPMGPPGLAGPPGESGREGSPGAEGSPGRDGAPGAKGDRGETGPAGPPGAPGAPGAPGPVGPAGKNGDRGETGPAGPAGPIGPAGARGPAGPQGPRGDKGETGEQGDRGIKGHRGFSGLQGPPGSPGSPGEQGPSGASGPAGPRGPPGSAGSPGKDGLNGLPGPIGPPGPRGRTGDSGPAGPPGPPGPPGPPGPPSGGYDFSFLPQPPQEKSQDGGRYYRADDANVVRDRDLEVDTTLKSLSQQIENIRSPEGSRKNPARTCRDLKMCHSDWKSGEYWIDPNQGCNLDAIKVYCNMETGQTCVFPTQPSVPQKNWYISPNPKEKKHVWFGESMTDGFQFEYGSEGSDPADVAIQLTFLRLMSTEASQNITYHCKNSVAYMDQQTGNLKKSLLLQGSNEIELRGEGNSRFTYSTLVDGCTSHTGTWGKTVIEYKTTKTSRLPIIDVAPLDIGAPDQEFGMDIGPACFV
row,Variant,effect of a mutation on the interaction
1,Q179N;N181T,disrupting interaction strength
2,Y193A,disrupting interaction strength
3,R206A;D208A,disrupting interaction strength
4,Y219A,disrupting interaction strength
5,Y292N;S294T,decreasing interaction strength
